Measured values from US20240270846A1 (published 2024).
Where a chain is given by its changes, count along the chain named.

B1: CE115HA000 H chain altered form K52bL (antibody, human IgG1, kappa, L234A L235A, N297A, name in Kabat numbering)
heavy: QVQLVESGGGVVQPGRSLRLSCAASGFTFSNAWMHWVRQAPGKGLEWVAQIKALSNNYATYYAESVKGRFTISRDDSKNSLYLQMNSLKTEDTAVYYCRYVHYGAYYGVDAWGQGTTVTVSSASTKGPSVFPLAPSSKSTSGGTAALGCLVKDYFPEPVTVSWNSGALTSGVHTFPAVLQSSGLYSLSSVVTVPSSSLGTQTYICNVNHKPSNTKVDKKVEPKSCDKTHTCPPCPAPEAAGGPSVFLFPPKPKDTLMISRTPEVTCVVVDVSHEDPEVKFNWYVDGVEVHNAKTKPREEQYASTYRVVSVLTVLHQDWLNGKEYKCKVSNKALPAPIEKTISKAKGQPREPQVYTLPPSRCELTKNQVSLSCAVKGFYPSDIAVEWESNGQPENNYKTTPPVLDSDGSFFLVSKLTVDKSRWQQGNVFSCSVMHEALHNHYTQKSLSLSPDYKDDDDK
chain: EPKSSDKTHTCPPCPAPELLGGPSVFLFPPKPKDTLMISRTPEVTCVVVDVSHEDPEVKFNWYVDGVEVHNAKTKPREEQYNSTYRVVSVLTVLHQDWLNGKEYKCKVSNKALPAPIEKTISKAKGQPREPQVCTLPPSRDELTKNQVSLWCLVKGFYPSDIAVEWESNGQPENNYKTTPPVLDSDGSFFLYSKLTVDKSRWQQGNVFSCSVMHEALHNRYTQKSLSLSP
light: DIVMTQSPLSLPVTPGEPASISCRSSQSLVHSNRNTYLHWYQQKPGQAPRLLIYKVSNRFSGVPDRFSGSGSGTDFTLKISRVEAEDVGVYYCGQGTQVPYTFGQGTKLEIKRTVAAPSVFIFPPSDEQLKSGTASVVCLLNNFYPREAKVQWKVDNALQSGNSQESVTEQDSKDSTYSLSSTLTLSKADYEKHKVYACEVTHQGLSSPVTKSFNRGEC
notes: one-arm antibody
B2: CE115HA000 H chain altered form N53S (antibody, human IgG1, kappa, L234A L235A, N297A, name in Kabat numbering)
heavy: B1 heavy with L54K, N56S
chain: B1 chain
light: B1 light
notes: one-arm antibody
B3: CE115HA000 H chain altered form N53D (antibody, human IgG1, kappa, L234A L235A, N297A, name in Kabat numbering)
heavy: B1 heavy with L54K, N56D
chain: B1 chain
light: B1 light
notes: one-arm antibody
B4: CE115HA000 H chain altered form N31G (antibody, human IgG1, kappa, L234A L235A, N297A, name in Kabat numbering)
heavy: B1 heavy with N31G, L54K
chain: B1 chain
light: B1 light
notes: one-arm antibody
B5: CE115HA000 H chain altered form K52bY (antibody, human IgG1, kappa, L234A L235A, N297A, name in Kabat numbering)
heavy: B1 heavy with L54Y
chain: B1 chain
light: B1 light
notes: one-arm antibody
B6: CE115HA000 H chain altered form N31Y (antibody, human IgG1, kappa, L234A L235A, N297A, name in Kabat numbering)
heavy: B1 heavy with N31Y, L54K
chain: B1 chain
light: B1 light
notes: one-arm antibody
B7: CE115HA000 H chain altered form N31Q (antibody, human IgG1, kappa, L234A L235A, N297A, name in Kabat numbering)
heavy: B1 heavy with N31Q, L54K
chain: B1 chain
light: B1 light
notes: one-arm antibody
B8: CE115HA000 H chain altered form N31R (antibody, human IgG1, kappa, L234A L235A, N297A, name in Kabat numbering)
heavy: B1 heavy with N31R, L54K
chain: B1 chain
light: B1 light
notes: one-arm antibody
B9: CE115HA000 H chain altered form K52bN (antibody, human IgG1, kappa, L234A L235A, N297A, name in Kabat numbering)
heavy: B1 heavy with L54N
chain: B1 chain
light: B1 light
notes: one-arm antibody
B10: CE115HA000 H chain altered form K52bR (antibody, human IgG1, kappa, L234A L235A, N297A, name in Kabat numbering)
heavy: B1 heavy with L54R
chain: B1 chain
light: B1 light
notes: one-arm antibody
B11: CE115HA000 H chain altered form N54A (antibody, human IgG1, kappa, L234A L235A, N297A, name in Kabat numbering)
heavy: B1 heavy with L54K, N57A
chain: B1 chain
light: B1 light
notes: one-arm antibody
B12: CE115HA000 H chain altered form N53Q (antibody, human IgG1, kappa, L234A L235A, N297A, name in Kabat numbering)
heavy: B1 heavy with L54K, N56Q
chain: B1 chain
light: B1 light
notes: one-arm antibody
B13: CE115HA000 H chain altered form N31A (antibody, human IgG1, kappa, L234A L235A, N297A, name in Kabat numbering)
heavy: B1 heavy with N31A, L54K
chain: B1 chain
light: B1 light
notes: one-arm antibody
B14: CE115HA000 H chain altered form N53I (antibody, human IgG1, kappa, L234A L235A, N297A, name in Kabat numbering)
heavy: B1 heavy with L54K, N56I
chain: B1 chain
light: B1 light
notes: one-arm antibody
B15: CE115HA000 H chain altered form N31S (antibody, human IgG1, kappa, L234A L235A, N297A, name in Kabat numbering)
heavy: B1 heavy with N31S, L54K
chain: B1 chain
light: B1 light
notes: one-arm antibody
B16: CE115HA000 H chain altered form N53H (antibody, human IgG1, kappa, L234A L235A, N297A, name in Kabat numbering)
heavy: B1 heavy with L54K, N56H
chain: B1 chain
light: B1 light
notes: one-arm antibody
B17: CE115HA000 H chain altered form N54G (antibody, human IgG1, kappa, L234A L235A, N297A, name in Kabat numbering)
heavy: B1 heavy with L54K, N57G
chain: B1 chain
light: B1 light
notes: one-arm antibody
B18: CE115HA000 H chain altered form N31W (antibody, human IgG1, kappa, L234A L235A, N297A, name in Kabat numbering)
heavy: B1 heavy with N31W, L54K
chain: B1 chain
light: B1 light
notes: one-arm antibody
B19: CE115HA000 H chain altered form N53A (antibody, human IgG1, kappa, L234A L235A, N297A, name in Kabat numbering)
heavy: B1 heavy with L54K, N56A
chain: B1 chain
light: B1 light
notes: one-arm antibody
B20: CE115HA000 H chain altered form N53W (antibody, human IgG1, kappa, L234A L235A, N297A, name in Kabat numbering)
heavy: B1 heavy with L54K, N56W
chain: B1 chain
light: B1 light
notes: one-arm antibody
B21: CE115HA000 H chain altered form N31F (antibody, human IgG1, kappa, L234A L235A, N297A, name in Kabat numbering)
heavy: B1 heavy with N31F, L54K
chain: B1 chain
light: B1 light
notes: one-arm antibody
B22: CE115HA000 H chain altered form N53G (antibody, human IgG1, kappa, L234A L235A, N297A, name in Kabat numbering)
heavy: B1 heavy with L54K, N56G
chain: B1 chain
light: B1 light
notes: one-arm antibody
B23: CE115HA000 H chain altered form K52bQ (antibody, human IgG1, kappa, L234A L235A, N297A, name in Kabat numbering)
heavy: B1 heavy with L54Q
chain: B1 chain
light: B1 light
notes: one-arm antibody
B24: CE115HA000 H chain altered form N53K (antibody, human IgG1, kappa, L234A L235A, N297A, name in Kabat numbering)
heavy: B1 heavy with L54K, N56K
chain: B1 chain
light: B1 light
notes: one-arm antibody
B25: CE115HA000 H chain altered form N54F (antibody, human IgG1, kappa, L234A L235A, N297A, name in Kabat numbering)
heavy: B1 heavy with L54K, N57F
chain: B1 chain
light: B1 light
notes: one-arm antibody
B26: CE115HA000 H chain altered form N31H (antibody, human IgG1, kappa, L234A L235A, N297A, name in Kabat numbering)
heavy: B1 heavy with N31H, L54K
chain: B1 chain
light: B1 light
notes: one-arm antibody
B27: CE115HA000 H chain altered form N31I (antibody, human IgG1, kappa, L234A L235A, N297A, name in Kabat numbering)
heavy: B1 heavy with N31I, L54K
chain: B1 chain
light: B1 light
notes: one-arm antibody
B28: CE115HA000 H chain altered form K52bS (antibody, human IgG1, kappa, L234A L235A, N297A, name in Kabat numbering)
heavy: B1 heavy with L54S
chain: B1 chain
light: B1 light
notes: one-arm antibody
B29: CE115HA000 H chain altered form N31D (antibody, human IgG1, kappa, L234A L235A, N297A, name in Kabat numbering)
heavy: B1 heavy with N31D, L54K
chain: B1 chain
light: B1 light
notes: one-arm antibody
B30: CE115HA000 H chain altered form N54D (antibody, human IgG1, kappa, L234A L235A, N297A, name in Kabat numbering)
heavy: B1 heavy with L54K, N57D
chain: B1 chain
light: B1 light
notes: one-arm antibody
B31: CE115HA000 H chain altered form N53Y (antibody, human IgG1, kappa, L234A L235A, N297A, name in Kabat numbering)
heavy: B1 heavy with L54K, N56Y
chain: B1 chain
light: B1 light
notes: one-arm antibody
B32: CE115HA000 H chain altered form N31K (antibody, human IgG1, kappa, L234A L235A, N297A, name in Kabat numbering)
heavy: B1 heavy with N31K, L54K
chain: B1 chain
light: B1 light
notes: one-arm antibody

molecular target: T1, CD3 epsilon homodimer protein (UniProt P07766 23-126); test: SPR Biacore T200, CD3 epsilon homodimer on chip, antibody as analyte;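 further: homodimer amine-coupled to a CM4 sensor chip, run at 25 °C in HBS-EP+ buffer, with kinetic parameters derived in Biacore T200 Evaluation Software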
T1 construct: also called CD3 (CD3 epsilon)
T1 sequence (P07766 23-126): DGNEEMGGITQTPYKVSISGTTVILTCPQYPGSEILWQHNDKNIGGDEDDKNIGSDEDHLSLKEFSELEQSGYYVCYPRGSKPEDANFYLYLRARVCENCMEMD
Protocol: An appropriate amount of CD3 epsilon homodimer protein was immobilized onto Sensor chip CM4 (GE Healthcare Japan Corp.) by the amine coupling method. Then, the antibody having an appropriate concentration was injected thereto as an analyte and allowed to interact with the CD3 epsilon homodimer protein on the sensor chip. Then, the sensor chip was regenerated by the injection of 10 mmol/L glycine-HCl (pH 1.5). The assay was conducted at 25 degrees C., and HBS-EP+(GE Healthcare Japan Corp.) was used as a running buffer. […] Each parameter was calculated using Biacore T200 Evaluation Software (GE Healthcare Japan Corp.).
Specifically, when the amount of the antibody comprising CE115HA000 bound was defined as X and the amount of the H chain one-amino acid altered form bound was defined as Y, a value of Z (ratio of amounts bound)=Y/X was used.

Binder	KD ratio (KD of CE115HA000 / KD of altered form)
B1	0.61
B2	0.59
B3	0.55
B4	1.37
B5	0.61
B6	1.1
B7	0.94
B8	0.98
B9	0.43
B10	0.91
B11	0.58
B12	1.05
B13	0.96
B14	0.57
B15	0.67
B16	0.55

Binder	KD ratio (KD of CE115HA000 / KD of altered form)
B17	0.84
B18	1.07
B19	0.55
B20	0.69
B21	1.24
B22	0.95
B23	0.62
B24	0.79
B25	0.97
B26	0.96
B27	0.62
B28	0.58
B29	1.14
B30	0.59
B31	0.94
B32	0.97
